Results published in article doi:10.1101/2020.10.22.351056 (bioRxiv, 2020).

Biological target: Fc-conjugated human angiotensin converting enzyme 2 (ACE2-Fc) (human, UniProt Q9BYF1)
Experiment: ELISA

Fc-conjugated human angiotensin converting enzyme 2 (ACE2-Fc), sequence (Q9BYF1 18-740): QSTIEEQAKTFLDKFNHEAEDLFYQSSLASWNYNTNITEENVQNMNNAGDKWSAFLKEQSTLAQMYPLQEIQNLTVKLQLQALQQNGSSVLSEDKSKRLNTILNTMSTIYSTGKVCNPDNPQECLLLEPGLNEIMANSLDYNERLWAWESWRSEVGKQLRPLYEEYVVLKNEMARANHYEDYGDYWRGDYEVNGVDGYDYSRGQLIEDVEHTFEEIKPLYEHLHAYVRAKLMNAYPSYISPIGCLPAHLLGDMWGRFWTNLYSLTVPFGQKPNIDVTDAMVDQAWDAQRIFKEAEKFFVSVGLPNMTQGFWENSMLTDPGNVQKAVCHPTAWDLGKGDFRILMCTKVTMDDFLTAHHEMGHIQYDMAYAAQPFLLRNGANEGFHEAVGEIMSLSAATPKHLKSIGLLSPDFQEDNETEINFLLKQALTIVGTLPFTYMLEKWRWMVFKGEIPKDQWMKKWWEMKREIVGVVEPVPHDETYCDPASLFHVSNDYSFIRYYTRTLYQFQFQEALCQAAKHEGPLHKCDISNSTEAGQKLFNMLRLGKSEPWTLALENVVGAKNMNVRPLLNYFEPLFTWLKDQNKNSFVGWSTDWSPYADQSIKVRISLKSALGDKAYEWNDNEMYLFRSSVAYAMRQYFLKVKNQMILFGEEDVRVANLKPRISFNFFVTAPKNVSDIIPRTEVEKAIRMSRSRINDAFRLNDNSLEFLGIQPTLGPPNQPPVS

B1: SARS-CoV spike protein S1+S2, His-tagged (domain or fragment)
chain: not shown
EC50: 13.9 nM
